The values below come from patent US20240358739A1, “COMPOSITION AND METHOD TO TREAT CACHEXIA” (THE TRUSTEES OF INDIANA UNIVERSITY, priority 2021, published 2024).

Assay [1] relates to osteoclast precursor cells. Nature of the assay: Osteoclast differentiation assay, pre-osteoclast cultures exposed to rmIGFBP1, TRAP stain. The class given is cell-based, mice. The conditions noted are these: 50 ng/mL recombinant IGFBP1, 48 h. Here is the method: The quantification of osteoclast differentiation in pre-osteoclast cultures exposed to rmIGFBP1 and stained for TRAP (n=5) is shown in FIG. 6. Furthermore, quantification of osteoclast differentiation in pre-osteoclasts co-cultured with AML12 previously exposed to CRC and treated with anti-IGFBP1 antibody (n=5) is shown in FIG. 7. The osteoclast differentiation assay was conducted as follows:
Bone marrow cells were isolated from at least two 4-month-old wild-type male C57BL/6 mice by flushing the bone marrow out from both tibiae and femora with 10% FBS and 1% P/S-α-MEM. Cells were cultured for 48 h. Non-adherent cells were then collected and 14×10^4 cells/cm2 were seeded on 96-well plates and cultured with RANKL 80 ng/ml (PeproTech) and M-CSF 20 ng/ml (PeproTech) added to induce osteoclast differentiation, the media was changed every 2 days. After 3 days of differentiation, 50 ng/mL of recombinant IGFBP1 or Vehicle (Control) was added to the osteoclast differentiation media for 48 h, after which cells were fixed for staining. […] Images were acquired using Axio Observer. Z1 motorized microscope (Zeiss, Oberkochen, Germany).

For assay [2], the system named is C2C12 myotubes. Nature of the assay: C2C12 myotube size after exposure to recombinant IGFBP1. The class given is cell-based. The note with it: recombinant IGFBP1 100 ng/ml, 48 hours. Here is the method:
(§1) C2C12 myotubes were produced by exposing fully confluent myoblasts to DMEM containing 2% horse serum, 2 mM L-glutamine and 1% P/S, replacing the media every other day for 5 days. At 5 days post differentiation, myotubes were exposed to recombinant IGFBP1 (100 ng/ml) or empty vehicle control for 48 hours. FIG. 9 presents the results.
For myotube size: Differentiated C2C12 myotubes were fixed in ice-cold acetone: methanol for ten minutes, blocked for 1 h at room temperature and incubated overnight at 4° C. with an anti-myosin heavy chain antibody (MF-20, 1:100, Developmental Studies Hybridoma Bank). The following day, myotubes were incubated for 1 h at room temperature with an AlexaFluor 594-labeled secondary antibody (A11032, 1:500; Invitrogen). Myotubes were observed under an Axio Observer.Z1 motorized microscope (Zeiss) and analysis was performed by measuring the diameter of the narrowest portion along the multi-nucleate fibers (n=600 fibers per condition) using ImageJ software.

In assay [3] the test system is HSMM myotubes. The experiment in a line: HSMM myotube atrophy after recombinant IGFBP1. The assay is classed as cell-based, human.
Assay [4] deals with ITGB1 signaling. The experiment in a line: Western blotting of ITGB1 signaling in myotubes exposed to recombinant IGFBP1. The assay is classed as cell-based. The protocol:
as §1
For western blots (FIG. 9): Cell layer protein extracts were obtained by homogenizing entire well surface in ice-cold RIPA buffer [150 mM NaCl, 1.0% NP-40, 0.5% sodium deoxycholate, 0.1% SDS and 50 mM Tris (pH 8.0)] supplemented with inhibitor cocktails for proteases (11697498001, Roche) and phosphatases (78428, Thermo Fisher Scientific). Following a 10-min incubation on ice, cellular debris was removed by centrifugation (15 min, 14,000 g at 4° C.), the supernatant was collected and protein concentration was assessed using the BCA protein assay method (Thermo Fisher Scientific). Protein extracts (30 μg) were electrophoresed in 4-15% gradient SDS Criterion TGX precast gels (Bio-Rad) and transferred to nitrocellulose membranes (30 min at 100 V; Bio-Rad). […] Blots were again serially washed using PBST and then visualized and quantified using the Odyssey Infrared Imaging System (LI-COR Biosciences). […]

B1: recombinant IGFBP1: recombinant insulin-like growth factor binding protein 1 (protein)
chain: APQPWHCAPCTAERLGLCPPVPASCPEISRPAGCGCCPTCALPMGAACGVATARCAQGLSCRALPGEPRPLHALTRGQGACVPEPAAPATSTLFSSQHEEAKAAVVSADELSESPEMTEEQLLDSFHLMAPSREDQPILWNAISTYSSMRAREIADLKKWKEPCQRELYKVLERLAAAQQKAGDEIYKFYLPNCNKNGFYHSKQCETSLDGEAGLCWCVYPWSGKKIPGSLETRGDPNCHQYFNVHN
As to B1, the “differentiation of osteoclast precursor cells” value in assay [1] is “sufficient to promote differentiation”; in assay [1] (listed as Recombinant IGFBP1), “promoted”. Further, the “atrophy of C2C12 myotubes” value in assay [2] is reported as “promoting atrophy”; in assay [2] (listed as Recombinant IGFBP1) it was “promoted”. For the same molecule, in assay [3], the “atrophy of HSMM myotubes” value is recorded as “promoting atrophy”. Also, the ERK phosphorylation entry in assay [4] is recorded as “increased”. The FAK phosphorylation result in assay [4] was “increased”.
